Laboratory results reported in the supplement of paper PMC9112550, “Optimization of the antimicrobial peptide Bac7 by deep mutational scanning” (BMC Biology, 2022).

Tested on: Escherichia coli TOP10
Experiment: shrunken log2 fold change of peptide-encoding DNA abundance (4.5 h post-induction vs induction); higher = less antimicrobial activity (less host growth inhibition)
Conditions: time post-induction: 4.5 h; library: site-saturation at positions 5, 18, 19, 20
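Also: peptides expressed intracellularly from a pBAD plasmid library in pooled LB shake-flask culture, induced with 0.3% L-arabinose, DNA abundance read by NGS, three biological replicates, DESeq2 with apeglm shrinkage.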

| Sequence | shrunken log2 fold change |
| --- | --- |
| RRIRERPPRLPRPRPRPPDPPRP | 0.106 |
| RRIRNRPPRLPRPRPRPIAEPRP | 0.196 |
| RRIRYRPPRLPRPRPRPEGFPRP | -0.487 |
| RRIRQRPPRLPRPRPRPNFNPRP | -0.295 |
| RRIRLRPPRLPRPRPRPKEKPRP | -0.0145 |
| RRIRWRPPRLPRPRPRPGGGPRP | 0.953 |
| RRIRHRPPRLPRPRPRPDPRPRP | 0.0959 |
| RRIRDRPPRLPRPRPRPIKYPRP | -0.206 |
| RRIRHRPPRLPRPRPRPQDRPRP | -0.111 |
| RRIRKRPPRLPRPRPRPCSVPRP | 0.0108 |
| RRIRYRPPRLPRPRPRPDIRPRP | -0.00867 |
| RRIRCRPPRLPRPRPRPHYKPRP | -0.894 |
| RRIRCRPPRLPRPRPRPVQRPRP | 0.123 |
| RRIRVRPPRLPRPRPRPCDWPRP | 0.192 |
| RRIRERPPRLPRPRPRPIFMPRP | -0.1 |
| RRIRGRPPRLPRPRPRPMWAPRP | 0.925 |
| RRIRYRPPRLPRPRPRPGCAPRP | -0.139 |
| RRIRSRPPRLPRPRPRPCTEPRP | -0.241 |
| RRIRIRPPRLPRPRPRPEQPPRP | 0.307 |
| RRIRGRPPRLPRPRPRPINRPRP | -0.231 |
| RRIRPRPPRLPRPRPRPECMPRP | 0.212 |
| RRIRSRPPRLPRPRPRPMCCPRP | 0.109 |
| RRIRFRPPRLPRPRPRPLGMPRP | -0.0132 |
| RRIRYRPPRLPRPRPRPYHGPRP | -0.139 |
| RRIRERPPRLPRPRPRPSGHPRP | -0.289 |

| Sequence | shrunken log2 fold change |
| --- | --- |
| RRIRSRPPRLPRPRPRPKSIPRP | -0.228 |
| RRIRKRPPRLPRPRPRPWIHPRP | -0.145 |
| RRIRQRPPRLPRPRPRPRHQPRP | -0.00749 |
| RRIRWRPPRLPRPRPRPVSIPRP | 0.235 |
| RRIRFRPPRLPRPRPRPKHNPRP | -0.483 |
| RRIRERPPRLPRPRPRPKCKPRP | -0.173 |
| RRIRIRPPRLPRPRPRPLVIPRP | -1.46 |
| RRIRQRPPRLPRPRPRPLQAPRP | 0.0365 |
| RRIRFRPPRLPRPRPRPQHGPRP | -0.126 |
| RRIRKRPPRLPRPRPRPLPAPRP | 1.13 |
| RRIRMRPPRLPRPRPRPYTYPRP | -0.398 |
| RRIRPRPPRLPRPRPRPSQVPRP | -0.645 |
| RRIRLRPPRLPRPRPRPHDGPRP | 0.0171 |
| RRIRTRPPRLPRPRPRPIQGPRP | -0.0537 |
| RRIRKRPPRLPRPRPRPHNAPRP | 0.0979 |
| RRIRYRPPRLPRPRPRPEMGPRP | -0.0771 |
| RRIRERPPRLPRPRPRPSIDPRP | -0.0545 |
| RRIRTRPPRLPRPRPRPVWAPRP | 0.237 |
| RRIRTRPPRLPRPRPRPEVRPRP | 0.0828 |
| RRIRTRPPRLPRPRPRPHSNPRP | -0.489 |
| RRIRTRPPRLPRPRPRPSMRPRP | -0.107 |
| RRIRQRPPRLPRPRPRPQSCPRP | 0.00408 |
| RRIRERPPRLPRPRPRPWVLPRP | -0.0134 |
| RRIRDRPPRLPRPRPRPDKRPRP | 0.00902 |
| RRIRHRPPRLPRPRPRPVLKPRP | -0.295 |

| Sequence | shrunken log2 fold change |
| --- | --- |
| RRIRWRPPRLPRPRPRPWYLPRP | -0.193 |
| RRIRLRPPRLPRPRPRPTWLPRP | 0.584 |
| RRIRFRPPRLPRPRPRPIMDPRP | -0.212 |
| RRIRSRPPRLPRPRPRPQYFPRP | -0.18 |
| RRIRYRPPRLPRPRPRPIKFPRP | -0.244 |
| RRIRTRPPRLPRPRPRPKITPRP | -0.464 |
| RRIRGRPPRLPRPRPRPTRPPRP | 1.16 |
| RRIRCRPPRLPRPRPRPPFSPRP | 0.236 |
| RRIRSRPPRLPRPRPRPQPPPRP | 0.489 |
| RRIRWRPPRLPRPRPRPHYLPRP | -0.106 |
| RRIRDRPPRLPRPRPRPQMLPRP | 0.269 |
| RRIRHRPPRLPRPRPRPRVAPRP | 0.395 |
| RRIRTRPPRLPRPRPRPYLCPRP | -0.189 |
| RRIRCRPPRLPRPRPRPYVYPRP | -0.834 |
| RRIRRRPPRLPRPRPRPTDTPRP | -0.11 |
| RRIRERPPRLPRPRPRPKCRPRP | -0.0625 |
| RRIRWRPPRLPRPRPRPQTDPRP | 0.236 |
| RRIRPRPPRLPRPRPRPFNFPRP | -0.155 |
| RRIRFRPPRLPRPRPRPAISPRP | -0.193 |
| RRIRIRPPRLPRPRPRPQGGPRP | 0.102 |
| RRIRDRPPRLPRPRPRPVHTPRP | -0.00587 |
| RRIRNRPPRLPRPRPRPWKKPRP | -0.0178 |
| RRIRARPPRLPRPRPRPDRCPRP | 0.285 |
| RRIRCRPPRLPRPRPRPSCIPRP | -0.253 |
| RRIRTRPPRLPRPRPRPHLCPRP | -0.17 |

| Sequence | shrunken log2 fold change |
| --- | --- |
| RRIRDRPPRLPRPRPRPEEPPRP | 2.06 |
| RRIRYRPPRLPRPRPRPGLDPRP | -0.188 |
| RRIRERPPRLPRPRPRPFYVPRP | -0.189 |
| RRIRDRPPRLPRPRPRPATQPRP | 0.52 |
| RRIRFRPPRLPRPRPRPDIDPRP | 0.0707 |
| RRIRKRPPRLPRPRPRPWNLPRP | -0.109 |
| RRIRWRPPRLPRPRPRPPPNPRP | 0.928 |
| RRIRERPPRLPRPRPRPAQPPRP | 0.0203 |
| RRIRGRPPRLPRPRPRPMREPRP | -0.00527 |
| RRIRCRPPRLPRPRPRPKDNPRP | -0.273 |
| RRIRFRPPRLPRPRPRPFMSPRP | -0.0532 |
| RRIRFRPPRLPRPRPRPYQPPRP | -0.269 |
| RRIRFRPPRLPRPRPRPSKYPRP | -0.868 |
| RRIRPRPPRLPRPRPRPSYWPRP | -0.277 |
| RRIRTRPPRLPRPRPRPWAQPRP | 0.0456 |
| RRIRDRPPRLPRPRPRPFKFPRP | -0.122 |
| RRIRKRPPRLPRPRPRPEPRPRP | 0.991 |
| RRIRGRPPRLPRPRPRPDNTPRP | 0.204 |
| RRIRYRPPRLPRPRPRPTFGPRP | -0.0386 |
| RRIRPRPPRLPRPRPRPTMCPRP | -0.0327 |
| RRIRIRPPRLPRPRPRPELIPRP | 0.0381 |
| RRIRIRPPRLPRPRPRPRTLPRP | -0.259 |
| RRIRYRPPRLPRPRPRPGECPRP | -0.489 |
| RRIRIRPPRLPRPRPRPGGSPRP | -0.0491 |
| RRIRKRPPRLPRPRPRPPTEPRP | 0.395 |

| Sequence | shrunken log2 fold change |
| --- | --- |
| RRIRNRPPRLPRPRPRPTPIPRP | 0.189 |
| RRIRCRPPRLPRPRPRPFLLPRP | -0.569 |
| RRIRQRPPRLPRPRPRPLGAPRP | 0.285 |
| RRIRSRPPRLPRPRPRPTQAPRP | 0.0131 |
| RRIRERPPRLPRPRPRPKNKPRP | -0.559 |
| RRIRNRPPRLPRPRPRPKWMPRP | -0.19 |
| RRIRARPPRLPRPRPRPMVLPRP | -0.118 |
| RRIRRRPPRLPRPRPRPHCYPRP | 0.0243 |
| RRIRARPPRLPRPRPRPNAYPRP | 0.0893 |
| RRIRVRPPRLPRPRPRPARIPRP | 0.149 |
| RRIRPRPPRLPRPRPRPKTPPRP | 0.0677 |
| RRIRIRPPRLPRPRPRPHCSPRP | -1.21 |
| RRIRSRPPRLPRPRPRPLNGPRP | -0.322 |
| RRIRSRPPRLPRPRPRPWTWPRP | -0.0804 |
| RRIRTRPPRLPRPRPRPKKVPRP | -0.282 |
| RRIRTRPPRLPRPRPRPIYWPRP | -0.157 |
| RRIRQRPPRLPRPRPRPEFWPRP | 0.238 |
| RRIRFRPPRLPRPRPRPEPEPRP | 0.864 |
| RRIRYRPPRLPRPRPRPTCRPRP | -0.157 |
| RRIRERPPRLPRPRPRPQLTPRP | -0.576 |
| RRIRCRPPRLPRPRPRPEKWPRP | -0.0207 |
| RRIRKRPPRLPRPRPRPHLVPRP | 0.0297 |
| RRIRGRPPRLPRPRPRPWALPRP | -0.115 |
| RRIRSRPPRLPRPRPRPSGCPRP | 0.208 |
| RRIRERPPRLPRPRPRPDNYPRP | -0.0933 |

| Sequence | shrunken log2 fold change |
| --- | --- |
| RRIRPRPPRLPRPRPRPELMPRP | -0.109 |
| RRIRWRPPRLPRPRPRPVNQPRP | 0.0575 |
| RRIRKRPPRLPRPRPRPRYLPRP | -0.179 |
| RRIRLRPPRLPRPRPRPNPPPRP | 0.0837 |
| RRIRQRPPRLPRPRPRPYCLPRP | -0.423 |
| RRIRCRPPRLPRPRPRPNIVPRP | -0.34 |
| RRIRGRPPRLPRPRPRPSTYPRP | -0.189 |
| RRIRYRPPRLPRPRPRPFDPPRP | -0.199 |
| RRIRKRPPRLPRPRPRPCHRPRP | 0.00781 |
| RRIRKRPPRLPRPRPRPRNMPRP | -0.162 |
| RRIRIRPPRLPRPRPRPDSWPRP | -0.268 |
| RRIRERPPRLPRPRPRPTIGPRP | -0.323 |
| RRIRSRPPRLPRPRPRPMKIPRP | 0.108 |
| RRIRIRPPRLPRPRPRPHKEPRP | 0.0692 |
| RRIRGRPPRLPRPRPRPNELPRP | 0.552 |
| RRIRSRPPRLPRPRPRPLETPRP | -0.122 |
| RRIRQRPPRLPRPRPRPQRFPRP | -0.0204 |
| RRIRNRPPRLPRPRPRPCMTPRP | 0.0616 |
| RRIRFRPPRLPRPRPRPLWEPRP | -0.12 |
| RRIRWRPPRLPRPRPRPADTPRP | 0.0101 |
| RRIRQRPPRLPRPRPRPICFPRP | -0.0372 |
| RRIRVRPPRLPRPRPRPWPKPRP | 0.0246 |
| RRIRGRPPRLPRPRPRPQGCPRP | 0.394 |
| RRIRDRPPRLPRPRPRPSQPPRP | -0.0206 |
| RRIRFRPPRLPRPRPRPMEVPRP | -0.00205 |
